These results are taken from patent US20240360226A1 (AstraZeneca / MedImmune, published 2024).

Assay [1] addresses EGFR on human tumour cells (A431, NCI-H1975, HCC827) (human) (UniProt P00533). As to the kind of experiment: cell-based or functional assay.
In the next assay the target is T1, HER4 (Homo sapiens (Human), UniProt Q15303 26-651).
T1 construct: also called EGFR HER family protein HER4
T1 sequence: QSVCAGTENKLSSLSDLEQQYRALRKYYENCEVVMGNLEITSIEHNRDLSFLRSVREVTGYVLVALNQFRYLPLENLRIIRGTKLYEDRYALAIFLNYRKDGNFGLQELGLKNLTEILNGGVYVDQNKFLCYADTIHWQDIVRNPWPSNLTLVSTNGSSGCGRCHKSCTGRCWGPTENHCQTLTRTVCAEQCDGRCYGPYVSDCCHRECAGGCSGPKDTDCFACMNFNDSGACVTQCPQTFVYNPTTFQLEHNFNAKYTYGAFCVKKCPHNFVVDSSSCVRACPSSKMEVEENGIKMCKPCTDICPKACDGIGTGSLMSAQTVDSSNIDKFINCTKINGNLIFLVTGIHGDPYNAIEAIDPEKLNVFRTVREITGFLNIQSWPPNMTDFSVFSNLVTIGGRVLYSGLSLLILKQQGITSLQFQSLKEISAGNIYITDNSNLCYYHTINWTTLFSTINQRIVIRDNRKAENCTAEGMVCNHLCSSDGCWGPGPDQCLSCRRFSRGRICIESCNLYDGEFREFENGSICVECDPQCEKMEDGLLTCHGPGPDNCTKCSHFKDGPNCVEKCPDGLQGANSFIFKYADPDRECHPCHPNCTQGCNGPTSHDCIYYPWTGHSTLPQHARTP
Nature of the assay: ELISA, antigen coated at 1 ug/mL, anti-human Fab-HRP detection, A450.

A further assay concerns the target Mouse cMET (recombinant) (mouse, UniProt P16056 25-931, limits assumed). Described as above. How it is done:
(§1) Specificity for EGFR and cMET species paralogs and closely related family members was determined by ELISA. Briefly, antigen solutions were prepared in PBS at 1 μg/mL and 50 microliters was coated onto half area ELISA assay plates. Plates were washed and blocked with 1% BSA in PBS containing 0.005% Tween-20 (PBS-T) for one hour at room temperature. […] Wells were incubated with 50 microliters of the indicated primary antibodies diluted in PBS-T in a 1:3 dilution series, starting at 10 μg/mL and ending at 0.002 ug/mL, except for the HER4 binding mAb control, MAB1131, for which the series started at 1 μg/mL. The wells were washed 4 times in PBS-T, then 50 μl of goat anti-human Fab HRP-labeled secondary antibody, diluted 1:5000 in PBS-T, was added to each well and incubated for one hour at room temperature. […] 50 microliters of TMB stop solution was added to all wells and the absorbance was read at 450 nm on a SpectraMax M5 microplate reader. Data were analyzed in the SoftMax Pro 5 software and plotted using GraphPad Prism 7 graphing software.
(§2) To determine the species cross reactivity, ELISA assays were carried out as described above.

Assay [2] deals with T2, Human cMET (recombinant, soluble monomeric) (human, UniProt P08581 25-932).
T2 construct: also called His-tagged cMET antigen
T2 sequence (P08581 25-932): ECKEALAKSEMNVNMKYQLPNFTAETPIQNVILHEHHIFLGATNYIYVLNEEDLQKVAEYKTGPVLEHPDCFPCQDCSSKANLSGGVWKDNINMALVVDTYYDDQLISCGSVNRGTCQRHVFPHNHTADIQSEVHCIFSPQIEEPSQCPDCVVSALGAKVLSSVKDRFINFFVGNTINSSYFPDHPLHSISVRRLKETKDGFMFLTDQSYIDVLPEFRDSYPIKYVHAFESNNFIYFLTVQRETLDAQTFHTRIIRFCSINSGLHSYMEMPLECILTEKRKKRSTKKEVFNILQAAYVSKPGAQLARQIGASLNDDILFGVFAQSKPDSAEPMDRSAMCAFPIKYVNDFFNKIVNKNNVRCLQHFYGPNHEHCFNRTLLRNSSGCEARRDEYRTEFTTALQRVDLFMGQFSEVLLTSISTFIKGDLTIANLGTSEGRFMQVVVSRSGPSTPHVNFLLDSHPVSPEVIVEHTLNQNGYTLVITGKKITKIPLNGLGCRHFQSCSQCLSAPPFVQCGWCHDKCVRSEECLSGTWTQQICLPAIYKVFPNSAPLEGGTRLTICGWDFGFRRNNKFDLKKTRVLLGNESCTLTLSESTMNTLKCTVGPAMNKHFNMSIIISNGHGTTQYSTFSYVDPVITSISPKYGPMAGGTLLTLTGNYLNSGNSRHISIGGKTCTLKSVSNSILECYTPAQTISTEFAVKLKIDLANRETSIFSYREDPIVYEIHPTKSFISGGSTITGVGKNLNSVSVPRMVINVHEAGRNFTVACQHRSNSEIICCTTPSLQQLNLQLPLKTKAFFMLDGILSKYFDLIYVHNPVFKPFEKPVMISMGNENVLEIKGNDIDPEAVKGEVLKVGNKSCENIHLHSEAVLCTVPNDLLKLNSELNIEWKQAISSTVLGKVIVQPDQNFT
The description is as above. On the procedure: as §1, §2

Assay [3] addresses T3, Cynomolgus monkey cMET (recombinant, soluble monomeric) (cynomolgus monkey, UniProt A0M8R7 25-932 (Papio anubis entry)).
T3 construct: also called cyno c-Met
Described as above. On the procedure: as §1, §2

A further assay addresses T4, HER3 (Homo sapiens (Human), UniProt P21860 20-643).
T4 construct: also called EGFR HER family protein HER3
The description is as above.

Assay [4] concerns the target T5, Human EGFR (recombinant, soluble monomeric) (human, UniProt P00533 25-645).
T5 construct: also called EGFR antigen; recombinant human EGFR
Nature of the assay: SPR (Biacore T200), antibody captured on anti-human IgG, soluble monomeric antigen as analyte, 25 C. On the procedure:
(§3) Mouse anti-human IgG was immobilized on a CM4 sensor chip with a final surface density of ˜2000 resonance units (RUs). A reference flow cell surface was also prepared on this sensor chip using identical immobilization protocol. Test and control article antibodies were prepared at 5-20 nM in instrument buffer (HBS-EP buffer; 0.01M HEPES, pH 7.4, 0.15M NaCl, 3 mM EDTA, and 0.005% P-20), along with 3-fold serial dilutions of purified EGFR (0.27-200 nM human, 0.4-900 nM cyno, and 4-1000 nM murine) or cMET proteins (0.27 to 66 nM human and 0.27-22 nM cyno) in instrument buffer. A sequential approach was utilized for kinetic measurements. Antibodies were first injected over the capture surface, at a flow rate of 10 μL/minute. Once the binding of the captured antibody stabilized, a single concentration of the analyte was injected over both capture and reference surfaces, at a flow rate of 75 μL/minute. The resulting binding response curves yielded the association phase data. Following the injection of analyte, the flow was then switched back to instrument buffer for 15 minutes to permit the collection of dissociation phase data, followed by a 1-minute pulse of 10 mM glycine, pH 1.5, to regenerate the antibody-captured surface on the chip. Binding responses against test and control article antibodies were recorded from duplicate injections of each concentration of analyte. In addition, several buffer injections were interspersed throughout the injection series. Select buffer injections were used along with the reference cell responses to correct the raw data sets for injection artifacts and/or nonspecific binding interactions, commonly referred to as “double referencing”. Corrected binding data were globally fit to a 1:1 binding model (Biacore T200 Evaluation software 2.0, GE Healthcare, Pittsburgh, PA).
(§4) Kinetic measurements to soluble monomeric forms of EGFR and cMET were performed using a BIACore instrument.
(SPR reads the build-up and loss of mass on a sensor chip optically.)

The target in assay [5] is T6, Cynomolgus monkey EGFR (recombinant, soluble monomeric) (cynomolgus monkey, UniProt P55245 25-645 (rhesus entry)).
T6 construct: also called cyno EGFR
Described as above. How it is done:
as §3, §4

The target of assay [6] is T7, Mouse EGFR (recombinant, soluble monomeric) (mouse, UniProt Q01279 25-647).
T7 construct: also called murine EGFR
Described as above. How it is done:
as §3, §4

The next assay concerns the target T8, HER2 (Homo sapiens (Human), UniProt P04626 23-652).
T8 construct: also called EGFR HER family protein HER2
As to the kind of experiment: ELISA, antigen coated at 1 ug/mL, anti-human Fab-HRP detection, A450. (In general: ELISA stands for enzyme-linked immunosorbent assay.)

Assay [7] addresses T2, Human cMET (recombinant, soluble …). Nature of the assay: SPR (Biacore T200), antibody captured on anti-human IgG, soluble monomeric antigen as analyte, 25 C. How it is done:
as §3, §4

Assay [8] concerns the target T3, Cynomolgus monkey cMET (recombinant, …). The assay is described as above. On the procedure:
as §3, §4

One may read the Kd as the free concentration of one partner at which half of the binding sites on the other are occupied at equilibrium, for simple one-to-one binding. For orientation: koff means the first-order rate constant of dissociation. Usually kon stands for a measure of how fast the partners come together.

T3 sequence (A0M8R7 25-932 S170N/I621T): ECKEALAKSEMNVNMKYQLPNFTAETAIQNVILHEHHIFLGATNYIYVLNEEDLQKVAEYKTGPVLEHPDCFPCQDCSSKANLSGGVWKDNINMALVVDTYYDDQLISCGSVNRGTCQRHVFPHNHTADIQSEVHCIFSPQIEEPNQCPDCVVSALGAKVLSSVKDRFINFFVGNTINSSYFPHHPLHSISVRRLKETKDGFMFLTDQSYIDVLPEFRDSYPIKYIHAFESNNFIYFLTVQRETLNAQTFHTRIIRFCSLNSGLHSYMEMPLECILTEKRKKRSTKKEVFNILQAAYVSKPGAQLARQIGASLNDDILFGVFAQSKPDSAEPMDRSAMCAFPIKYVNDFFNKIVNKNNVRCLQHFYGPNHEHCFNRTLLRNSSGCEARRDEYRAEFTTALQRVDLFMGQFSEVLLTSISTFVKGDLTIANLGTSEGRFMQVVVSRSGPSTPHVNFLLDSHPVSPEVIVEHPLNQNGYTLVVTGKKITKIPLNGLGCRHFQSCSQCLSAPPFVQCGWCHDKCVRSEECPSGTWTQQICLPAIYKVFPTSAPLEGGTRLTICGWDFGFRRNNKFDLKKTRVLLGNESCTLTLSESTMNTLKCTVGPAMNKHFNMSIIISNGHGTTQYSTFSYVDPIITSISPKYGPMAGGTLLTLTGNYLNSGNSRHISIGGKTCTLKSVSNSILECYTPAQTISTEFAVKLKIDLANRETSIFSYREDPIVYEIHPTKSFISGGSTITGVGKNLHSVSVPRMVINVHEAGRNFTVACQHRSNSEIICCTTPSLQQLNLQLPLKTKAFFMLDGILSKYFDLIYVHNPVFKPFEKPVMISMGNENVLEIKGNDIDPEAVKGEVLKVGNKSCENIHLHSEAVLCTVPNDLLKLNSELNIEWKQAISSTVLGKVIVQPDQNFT
Chain of Mouse cMET (recombinant) (P16056 25-931 limits assumed): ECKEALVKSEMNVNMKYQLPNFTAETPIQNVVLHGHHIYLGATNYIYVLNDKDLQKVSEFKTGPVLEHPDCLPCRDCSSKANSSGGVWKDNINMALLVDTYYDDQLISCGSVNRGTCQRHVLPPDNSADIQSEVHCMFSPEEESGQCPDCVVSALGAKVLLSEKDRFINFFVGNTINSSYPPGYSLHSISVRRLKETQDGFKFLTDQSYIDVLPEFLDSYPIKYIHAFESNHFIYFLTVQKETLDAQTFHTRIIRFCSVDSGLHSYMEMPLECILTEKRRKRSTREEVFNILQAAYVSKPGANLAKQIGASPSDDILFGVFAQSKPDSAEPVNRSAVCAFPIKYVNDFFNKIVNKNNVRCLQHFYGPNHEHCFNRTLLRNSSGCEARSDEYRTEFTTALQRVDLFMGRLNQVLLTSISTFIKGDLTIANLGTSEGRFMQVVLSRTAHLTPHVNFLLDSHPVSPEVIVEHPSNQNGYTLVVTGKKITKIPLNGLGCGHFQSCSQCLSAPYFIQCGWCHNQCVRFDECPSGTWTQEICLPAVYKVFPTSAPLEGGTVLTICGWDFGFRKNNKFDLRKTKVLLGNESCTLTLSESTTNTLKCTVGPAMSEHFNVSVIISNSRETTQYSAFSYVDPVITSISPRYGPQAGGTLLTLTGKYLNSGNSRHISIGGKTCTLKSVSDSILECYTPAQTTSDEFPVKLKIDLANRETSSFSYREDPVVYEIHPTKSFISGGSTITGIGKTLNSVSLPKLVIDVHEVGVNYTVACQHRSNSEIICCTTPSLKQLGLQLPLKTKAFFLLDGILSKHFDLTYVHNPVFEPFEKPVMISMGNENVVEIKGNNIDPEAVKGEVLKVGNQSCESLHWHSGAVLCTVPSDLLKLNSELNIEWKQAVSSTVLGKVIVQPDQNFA

B1: RAA22/R347-AZ1508 (bispecific antibody, part only; not given: R347 control arm and constant regions, V domains shown, part only)
VH: QVQLVQSGAEVKKPGSSVKVSCKASGGTFSDNDFSWVRQAPGQGLEWMGAIVAVFRTETYAQKFQDRVKITADISTRTTYMELSSLRSEDTAVYYCARRLMSAISGPGAPLLMWGQGTLVTVSS
VL: QSALTQPRSVSGSPGQSVTISCTGTSSDVGGYNYVSWYQQHPGKAPKLMIYDVSKRPSGVPDRFSGSKSGNTASLTISGLQAEDEADYYCSSYTSSDTLEIFGGGTKLTVL
In the case of B1, in assay [1], the IC50, CellTiter-Glo cytotoxicity on NCI H1975 cells (FIG. 11) stood at 20.5 nM and the fold difference in IC50 against the bispecific EGFR-cMET ADC stood at 65 fold.

B2: RAA22 IgG (antibody, V domains shown)
VH: QVQLVQSGAEVKKPGSSVKVSCKASGGTFSDNDFSWVRQAPGQGLEWMGAIVAVFRTETYAQKFQDRVKITADISTRTTYMELSSLRSEDTAVYYCARRLMSAISGPGAPLLMWGQGTLVTVSS
VL: QSALTQPRSVSGSPGQSVTISCTGTSSDVGGYNYVSWYQQHPGKAPKLMIYDVSKRPSGVPDRFSGSKSGNTASLTISGLQAEDEADYYCSSYTSSDTLEIFGGGTKLTVL
notes: Bivalent parental IgG; Only the variable domains are tied to the parental IgG; also called anti-EGFR antibody clone RAA22
For the molecule B2, the binding result (with HER4; in the assay with Mouse cMET (recombinant); in assay [2]; in assay [3]; with HER3; with HER2) was “no binding (tested: 10 ug/ml)” in each case. The Kd in [4] is 46.6 nM; in assay [5] it was 170 nM; in [6], 488 nM. In addition, the koff was 0.00206 s⁻¹ in [4], 0.00601 s⁻¹ in assay [5] and 0.019 s⁻¹ in assay [6]. For the same molecule, the kon in assay [4] was determined as 44100 M⁻¹ s⁻¹; in [5] it was 35400 M⁻¹ s⁻¹; in assay [6], 40300 M⁻¹ s⁻¹.

B3: QD6/B09-57 DuetMab (bispecific antibody, human IgG1, kappa, lambda)
heavy 1: QVQLVQSGAEVKKPGSSVKVSCKASGGTFSDNDFSWVRQAPGQGLEWMGAIVAVVRTETYAQKFQDRVKITADISTRTTYMELSSLRSEDTAVYYCARRLMSAISGPGAPLLMWGQGTLVTVSSASTKGPSVFPLAPSSKSTSGGTAALGCLVKDYFPEPVTVSWNSGALTSGVHTFPAVLQSSGLYSLSSVVTVPSSSLGTQTYICNVNHKPSNTKVDKRVEPKSCDKTHTCPPCPAPELLGGPSCVFLFPPKPKDTLMISRTPEVTCVVVDVSHEDPEVKFNWYVDGVEVHNAKTKPREEQYNSTYRVVSVLTVLHQDWLNGKEYKCKVSNKALPAPIEKTISKAKGQPREPQVCTLPPSREEMTKNQVSLSCAVKGFYPSDIAVEWESNGQPENNYKTTPPVLDSDGSFFLVSKLTVDKSRWQQGNVFSCSVMHEALHNHYTQKSLSLSPGK
light 1: QSALTQPRSVSGSPGQSVTISCTGTSSDVGGYNYVSWYQQHPGKAPKLMIYDVSERPSGVPDRFSGSKSGNTASLTISGLQAEDEADYYCFSYTSSDTLEIFGGGTKLTVLGQPKAAPSVTLFPPSSEELQANKATLVCLISDFYPGAVTVAWKADSSPVKAGVETTTPSKQSNNKYAASSYLSLTPEQWKSHRSYSCQVTHEGSTVEKTVAPTECS
heavy 2: QVQLVQSGAEVKKPGASVKVSCKASGYTFTDYYIHWVRQATGQGLEWMGWMNPNSGNTGYAQKFQGRVTMTRDTSISTAYMELSSLRSEDTAVYYCARGQGYTHSWGQGTMVTVSSASTKGPSVCPLAPSSKSTSGGTAALGCLVKDYFPEPVTVSWNSGALTSGVHTFPAVLQSSGLYSLSSVVTVPSSSLGTQTYICNVNHKPSNTKVDKRVEPKSVDKTHTCPPCPAPELLGGPSCVFLFPPKPKDTLMISRTPEVTCVVVDVSHEDPEVKFNWYVDGVEVHNAKTKPREEQYNSTYRVVSVLTVLHQDWLNGKEYKCKVSNKALPAPIEKTISKAKGQPREPQVYTLPPCREEMTKNQVSLWCLVKGFYPSDIAVEWESNGQPENNYKTTPPVLDSDGSFFLYSKLTVDKSRWQQGNVFSCSVMHEALHNHYTQKSLSLSPG
light 2: DIQMTQSPSTLSASVGDRVTITCRASEGIYHWLAWYQQKPGKAPKLLIYKASSLASGVPSRFSGSGSGTEFTLTISSLQPDDFATYYCQQYSNYPPTFGGGTKLEIKRTVAAPSVFIFPPCDEQLKSGTASVVCLLNNFYPREAKVQWKVDNALQSGNSQESVTEQDSKDSTYSLSSTLTLSKADYEKHKVYACEVTHQGLSSPVTKSFNRGEV
notes: Monovalent bispecific IgG1 DuetMab with cysteine insertion after Ser239; Labelled with AlexaFluor-647 in the microscopy experiments; also called QD06/B09-57; bispecific EGFR/cMET DuetMAb
As for B3, the binding result with HER4, with Mouse cMET (recombinant), in the assay with HER3 and in the assay with HER2 was “no binding (tested: 10 ug/ml)” throughout. In addition, the Kd was 5.9 nM in [4]; 1.6 nM in [7]; 2.8 nM in [5]; 2.2 nM in [8]; 6.2 nM in assay [6]. Besides, the koff stood at 0.000374 s⁻¹ in assay [4]; 0.000696 s⁻¹ in assay [7]; 0.000585 s⁻¹ in assay [5]; 0.00206 s⁻¹ in assay [8]; 0.00078 s⁻¹ in [6]. Also, the kon in assay [4] came out at 63500 M⁻¹ s⁻¹; in [7], 425000 M⁻¹ s⁻¹; in assay [5], 210000 M⁻¹ s⁻¹; in assay [8], 958000 M⁻¹ s⁻¹; in [6] it was 126000 M⁻¹ s⁻¹.
